Data published in the supplement of paper PMC10567573.

B1: MLL5 (parent)
chain: TYLCERCQPRNLDKERAVLLQRRK

Variants of: B1
Assay: protein stability index of a GFP-peptide fusion (GPS, HEK-293T) (PSI 1-6); higher = more stable
Details: c terminus: a fixed tail appended
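Also: lentivirally expressed fusions sorted by FACS into six bins by GFP to DsRed ratio, PSI derived from sequencing read proportions per bin multiplied by bin number.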

Protein stability index of substitutions, site by site:
L20: P 2.08; S 1.9; T 1.58; W 2.31; Y 1.76
Q21: C 2.02; D 2.78; E 2.09; G 2.91; H 3.22; I 1.73; K 2.64; M 2.46; N 2.42; R 2.51; S 1.99; T 1.81; V 1.84; Y 2.04
R22: A 2; C 2.08; D 2.2; E 1.76; G 1.98; H 2.28; I 2.44; K 2.03; L 1.89; M 2.18; N 1.99; P 2.9; S 2.34; T 2.1; V 1.98; W 2.14; Y 1.97
R23: C 2.31; D 1.76; E 1.72; F 2.03; G 2.1; H 2.05; I 2.57; K 2.91; L 1.47; M 2.16; N 2.36; P 2.5; S 2.35; W 2.39; Y 1.48
K24: A 1.73; D 2.36; E 2.25; G 1.69; H 2.74; I 1.6; L 2.17; M 1.81; P 2.38; Q 2.65; T 2.28; W 3.28; Y 1.91
